Data reported in US20120030779A1 (UNIVERSITY OF UTAH RESEARCH FOUNDTION, published 2012).

Molecular target: T1, glucose-6-phosphate dehydrogenase (G6PD), mouse heart (mouse, UniProt Q00612 2-515)
T1 construct: Endogenous protein immunoprecipitated or detected with rabbit anti-G6PD; also called G6PDH
Assay: co-immunoprecipitation (anti-G6PD IP, anti-CryAB blot) from NTg mouse heart homogenate
Method: Immunoprecipitation and Immunoblotting: Heart homogenates were first prepared in TBS (10 mM Tris, 150 mM NaCl, pH 7.4) and centrifuged at 10,000 g for 15 minutes at 4° C.

T1 sequence (Q00612 2-515 limits assumed): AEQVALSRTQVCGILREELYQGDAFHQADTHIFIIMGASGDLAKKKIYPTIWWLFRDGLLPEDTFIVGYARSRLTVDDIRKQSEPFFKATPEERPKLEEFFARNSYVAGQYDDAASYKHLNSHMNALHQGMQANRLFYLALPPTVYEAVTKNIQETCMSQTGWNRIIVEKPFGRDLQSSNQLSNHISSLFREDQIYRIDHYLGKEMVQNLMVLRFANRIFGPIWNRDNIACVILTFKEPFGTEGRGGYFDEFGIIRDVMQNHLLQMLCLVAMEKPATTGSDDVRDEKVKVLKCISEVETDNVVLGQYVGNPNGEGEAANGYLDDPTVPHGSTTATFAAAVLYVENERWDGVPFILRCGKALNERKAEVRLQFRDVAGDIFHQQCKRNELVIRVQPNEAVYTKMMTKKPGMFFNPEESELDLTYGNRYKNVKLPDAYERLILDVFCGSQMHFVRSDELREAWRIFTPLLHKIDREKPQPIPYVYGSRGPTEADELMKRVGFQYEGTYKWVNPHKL

B1: mouse alphaB-crystallin (endogenous CryAB of non-transgenic mouse heart) (other, UniProt P23927 1-175, looked up)
chain: MDIAIHHPWIRRPFFPFHSPSRLFDQFFGEHLLESDLFSTATSLSPFYLRPPSFLRAPSWIDTGLSEMRLEKDRFSVNLDVKHFSPEELKVKVLGDVIEVHGKHEERQDEHGFISREFHRKYRIPADVDPLTITSSLSSDGVLTVNGPRKQVSGPERTIPITREEKPAVAAAPKK
notes: Only CryAB present in NTg heart extracts; also called CryAB (NTg)
  binding result: no binding
